Experiments:
[1] = biological target: T1, PH0782; Ala/Ser racemase (ASR) (Pyrococcus horikoshii, UniProt O58478); assay: apo-enzyme reactivation, racemase activity; format: biochemical; conditions: apo-enzyme prepared at 80°C for 18 h in assay mixture with L-Ala; covalent (Schiff base, K291 suggested)
T1 construct: full-length, pET11a (NdeI/BglII), no tag described, E. coli BL21 (DE3), purified; hexamer about 300 kDa; fold type I PLP enzyme

PH1501 = biological target: T2, PH1501 (Pyrococcus horikoshii, UniProt O59170); assay: UPLC detection of D-amino acid; format: biochemical; conditions: partially purified (heat-treated) enzyme; 100 mM HEPES pH 7.0, 10 mM L-amino acid, 0.04 mM PLP, 80°C, 60 min; slight peak
T2 construct: full-length, pET11a (NdeI/BamHI), no tag described, E. coli BL21 (DE3), partially purified by heat treatment at 90°C; about 50 kDa on SDS-PAGE
T2 sequence (O59170 1-438): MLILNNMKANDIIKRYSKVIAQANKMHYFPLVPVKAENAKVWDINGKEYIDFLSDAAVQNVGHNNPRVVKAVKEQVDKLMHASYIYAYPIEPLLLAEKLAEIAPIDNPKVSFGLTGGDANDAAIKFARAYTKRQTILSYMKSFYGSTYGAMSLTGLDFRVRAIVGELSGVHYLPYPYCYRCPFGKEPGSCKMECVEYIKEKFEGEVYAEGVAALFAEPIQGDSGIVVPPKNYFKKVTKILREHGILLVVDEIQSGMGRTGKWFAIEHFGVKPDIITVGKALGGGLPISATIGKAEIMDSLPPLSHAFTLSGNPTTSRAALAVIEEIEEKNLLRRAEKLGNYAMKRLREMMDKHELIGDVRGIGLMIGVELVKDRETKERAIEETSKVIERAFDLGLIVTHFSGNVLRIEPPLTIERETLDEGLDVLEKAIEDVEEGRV

purified protein [2] = substrate: C[C@@H](N)C(=O)O; assay: purified protein; conditions: 100 mM HEPES pH 7.0, 0.04 mM PLP, 80°C, racemization to L-Ala, apparent
purified protein [3] = substrate: C[C@H](N)C(=O)O; assay: purified protein; conditions: 100 mM HEPES pH 7.0, 0.04 mM PLP, 80°C, racemization to D-Ala, apparent
purified protein [4] = substrate: N[C@@H](CO)C(=O)O; assay: purified protein; conditions: 100 mM HEPES pH 7.0, 0.04 mM PLP, 80°C, racemization to D-Ser, apparent
purified protein [5] = substrate: N[C@H](CO)C(=O)O; assay: purified protein; conditions: 100 mM HEPES pH 7.0, 0.04 mM PLP, 80°C, racemization to L-Ser, apparent
[6] = biological target: the molecule itself; assay: SEC; gel filtration on HiLoad 26/60 Superdex 200 with molecular mass standards (thyroglobulin, gamma-globulin, ovalbumin, myoglobin); native mass about 300 kDa against a subunit of 50.5 kDa (calculated)

With `Cc1ncc(COP(=O)(O)O)c(C=O)c1O` [pyridoxal 5′-phosphate] the “apo-enzyme reactivation, racemase activity” value [1] was “apo-enzyme exhibited no activity in the absence of PLP and recovered its activity by addition”.

`CSCC[C@H](N)C(=O)O` [Met] was tested, and the “UPLC detection of D-amino acid” value (PH1501) was “Slight peaks for the D-forms of Met, Phe, and Leu were detected”.

`N[C@@H](Cc1ccccc1)C(=O)O` [Phe] was tested, and the “UPLC detection of D-amino acid” value (PH1501) was “Slight peaks for the D-forms of Met, Phe, and Leu were detected”.

B1: PH0782; Ala/Ser racemase (ASR) (Pyrococcus horikoshii OT3) (protein)
chain: MEYPKIVVKPPGPRAKELIEREKKVLSTGIGVKLFPLVPKRGFGPFIEDVDGNVFIDFLAGAAAASTGYAHPKLVKAVKEQVELIQHSMIGYTHSERAIRVAEKLVEISPIENSKVIFGLSGSDAVDMAIKVSKFSTRRPWILAFIGAYHGQTLGATSVASFQVSQKRGYSPLMPNVFWIPYPNPFRNIWGINGYEEPDELINRVLDYLEYYVFSHVVPPDEVAALFAEPIQGDAGIVVPPENFFKELKKLLEEYGILLVMDEVQTGIGRTGKWFASEWFNVKPDMIIFGKGVASGMGLSGVIGRKEIMDITSGSALLTPAANPVISAAAEATLEIIEEENLLKNALEVGEFIMGRLKEIKERFEIIGDVRGKGLMIGVEIVKENGRPDPEMTGKICWRAFELGLILPSYGMFGNVIRITPPLVLTKEVAEKALEIIERAIKDTLTGKVERKVVTWH
Work on B1 yielded a Km (purified protein [2]) of 5.5 ± 0.59 mM, a Vmax (purified protein [2]) of 49.5 µmol/min/mg and a kcat/Km (purified protein [2]) of 7580 M⁻¹ s⁻¹. It also gave a Km (purified protein [3]) of 3.3 ± 0.22 mM, a Vmax (purified protein [3]) of 28.2 µmol/min/mg and a kcat/Km (purified protein [3]) of 7190 M⁻¹ s⁻¹. For the same molecule, the Km (purified protein [4]) was 4.5 ± 0.32 mM, the Vmax (purified protein [4]) was 31.4 µmol/min/mg and the kcat/Km (purified protein [4]) was 5870 M⁻¹ s⁻¹. It also gave a Km (purified protein [5]) of 5.9 ± 0.40 mM, a Vmax (purified protein [5]) of 41.2 µmol/min/mg and a kcat/Km (purified protein [5]) of 5880 M⁻¹ s⁻¹.

B2: Ala/Ser racemase (ASR), the protein encoded by PH0782, from Pyrococcus horikoshii OT-3 (enzyme, UniProt O58478 1-474, looked up)
chain: MPFLPFSYYPFSLEVILMEYPKIVVKPPGPRAKELIEREKKVLSTGIGVKLFPLVPKRGFGPFIEDVDGNVFIDFLAGAAAASTGYAHPKLVKAVKEQVELIQHSMIGYTHSERAIRVAEKLVEISPIENSKVIFGLSGSDAVDMAIKVSKFSTRRPWILAFIGAYHGQTLGATSVASFQVSQKRGYSPLMPNVFWIPYPNPFRNIWGINGYEEPDELINRVLDYLEYYVFSHVVPPDEVAALFAEPIQGDAGIVVPPENFFKELKKLLEEYGILLVMDEVQTGIGRTGKWFASEWFNVKPDMIIFGKGVASGMGLSGVIGRKEIMDITSGSALLTPAANPVISAAAEATLEIIEEENLLKNALEVGEFIMGRLKEIKERFEIIGDVRGKGLMIGVEIVKENGRPDPEMTGKICWRAFELGLILPSYGMFGNVIRITPPLVLTKEVAEKALEIIERAIKDTLTGKVERKVVTWH
notes: Ala/Ser racemase encoded by ORF PH0782 of Pyrococcus horikoshii OT-3 (annotated as a putative GABA aminotransferase); amplified from genomic DNA with primers from the initiation codon to the termination codon; calculated subunit mass 50.5 kDa; PLP-dependent enzyme; also called BAR homolog; source: E. coli BL21 (DE3), pET11a/PH0782, purified (heat treatment, butyl-Toyopearl, DEAE-cellurofine)
For B2, the “stoichiometry N” value [6] was 6.

Source: article PMC6047364, “A Novel PLP-Dependent Alanine/Serine Racemase From the Hyperthermophilic Archaeon Pyrococcus horikoshii OT-3” (Frontiers in Microbiology, 2018)
